T1: B7-1 (Homo sapiens (Human), UniProt P33681 35-242)
T1 construct: probably human
T1 sequence: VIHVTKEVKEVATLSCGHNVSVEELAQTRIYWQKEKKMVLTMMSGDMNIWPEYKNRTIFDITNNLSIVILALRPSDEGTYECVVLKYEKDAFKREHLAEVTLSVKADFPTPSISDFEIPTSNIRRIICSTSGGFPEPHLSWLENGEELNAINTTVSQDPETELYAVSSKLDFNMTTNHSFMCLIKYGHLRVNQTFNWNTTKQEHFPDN


Assays:
[1] = biological target: T2, hPD-L1 on hPD-L1-Fc over-expressed cells (human, UniProt Q9NZQ7 19-290); test: cell inhibition assay: cells printed as PD1-27 (PD1 over-expressed CHO-K1), antibody, PD1-Fc-Biotin as competitor, Europium-labeled streptavidin
T2 construct: whole, on cells; also called over-expressed hPD-L1-Fc cells
Excerpt: D. Cell Inhibitory Activity [0090] Lay PD1-27 (PD1 over-expressed CHO-K1 stable transfected cells) on the cell plate for culture inspection one day ahead of schedule. After closure on the next day, add gradient-diluted antibody, then PD1-Fc-Biotin, then Europium-labeled streptavidin, and obtain the readings.

[2] = biological target: T2, hPD-L1 on hPD-L1-Fc over-expressed cells; test: cell binding on hPD-L1-Fc over-expressed cells, anti-mouse-EU fluorescence
Excerpt: C. Cell Binding Activity [0088] Lay hPD-L1-Fc over-expressed cells on the cell plate for culture inspection one day ahead of schedule. After closure on the next day, add gradient-diluted antibody, then anti-mouse-EU. And then obtain the readings.

hPD-L1-Fc [3] = biological target: T3, hPD-L1-Fc (human, UniProt Q9NZQ7 19-238, limits assumed); test: competition ELISA: antibody pre-incubated with hPD-L1-Fc-Biotin, added to a plate printed as coated with hPD-L1-Fc, SA-HRP
T3 construct: Plate-coated antigen in the Embodiment 1 ELISAs
Description: B. ELISA Inhibitory Activity [0086] Incubate the gradient diluted antibody and a certain concentration of hPD-L1-Fc-Biotin, then add the mixture to the plate enveloped with hPD-L1-Fc. Add SA-HRP to the plate after incubating and washing. Then perform coloration. Draw up the reaction curve by fitting of readings (see FIG. 2 for results) to calculate the IC50 value.

hPD-L1-Fc [4] = biological target: T3, hPD-L1-Fc; test: ELISA on coated hPD-L1-Fc, goat anti-mouse-HRP
Description: A. ELISA Binding Activity [0084] Envelop hPD-L1-Fc on the plate, add gradient diluted antibody, incubate and wash it, and then add goat anti-mouse-HRP, perform coloration, and draw up the reaction curve by fitting of readings (the results as shown in FIG. 1) to calculate the EC50 value.

[5] = biological target: T4, recombinant human PD-L1 fusion protein (human, UniProt Q9NZQ7 19-238); test: ELISA, recombinant human PD-L1 fusion protein coated, antibody after 7 days in monkey serum at 37 °C, goat anti-human FAB-HRP, OD450
T4 construct: This may be the same reagent as hPD-L1-Fc
Description: (§1) The recombinant human PD-L1 fusion protein is stored at the concentration of 0.5 μg/mL at 4° C. overnight in enveloping buffer. Remove the solution in wells the next day and wash with PBST for twice. Then add 1% BSA, seal at 37° C. for 1 hour, then wash with PBST for twice. The stable antibody samples are diluted three folds starting from 1 μg/mL for 8 concentration gradients, incubated at 37° C. for 1 hour, and washed with PBST for three times. Dilute with goat anti-human FAB-HRP at ratio of 1:10000, incubate for 1 hour at 37 C, and wash with PBST for three times. Add TMB for 15 min coloration, stop the reaction with 0.5M H₂SO₄ and read out the absorbance at 450 nm.

[6] = biological target: T4, recombinant human PD-L1 fusion protein; test: competition ELISA on coated recombinant human PD-L1 fusion protein, PD1-Fc-Biotin as competitor, streptavidin-HRP
Description: The recombinant human PD-L1 fusion protein of 0.5 μg/mL is stored at 4° C. overnight in enveloping buffer. Remove the solution in wells the next day and wash with PBST for twice. Then add 1% BSA, seal at 37° C. for 1 hour, then wash with PBST for twice. The antibody is diluted 2.5 folds starting from 10 μg/mL for 8 concentration gradients, mixed with same volume of 1 μg/mL PD1-Fc-Biotin, incubated at 25° C. for 1 hour, and washed with PBST for one time. Incubate with goat streptavidin-HRP at ratio of 1:10000 for 1 hour at 37 C, and wash with PBST for three times. Add TMB for 15 min coloration, stop the reaction with 0.5M H₂SO₄ and read out the absorbance at 450 nm.

[7] = biological target: T4, recombinant human PD-L1 fusion protein; test: ELISA on coated recombinant human PD-L1 fusion protein, goat anti-human FAB-HRP
Description: The recombinant human PD-L1 fusion protein of 0.5 μg/mL is stored at 4° C. overnight in enveloping buffer. Remove the solution in wells the next day and wash with PBST for twice. Then add 1% BSA and seal at 37° C. for 1 hour. Wash with PBST for twice. The antibody is diluted three folds starting from 5 μg/mL for 8 concentration gradients, incubated at 25° C. for 1 hour, and washed with PBST for three time. Dilute with goat anti-human FAB-HRP at ratio of 1:10000, incubate for 1 hour at 37 C, and wash with PBST for three times. Add TMB for 15 min coloration, stop the reaction with 0.5M H₂SO₄ and read out the absorbance at 450 nm.

[8] = biological target: T4, recombinant human PD-L1 fusion protein; test: ELISA, recombinant human PD-L1 fusion protein coated, antibody after 0 days in monkey serum at 37 °C, goat anti-human FAB-HRP, OD450
Description: as §1

[9] = biological target: T5, recombinant human PD-L1 expressed on the surface of CHO cells (human, UniProt Q9NZQ7 19-290); test: cell ELISA on CHO cells expressing human PD-L1, anti-human-Eu fluorescence
T5 construct: whole, on cells; also called CHO cells transfected by PD-L1; CHO cells with PD-L1 expressed on the surface
Description: A Chinese hamster ovary (CHO) cell line expressing recombinant human PD-L1 on cell surface is constructed and its binding specificity to humanized antibody anti-PD-L1-1 is determined by ELISA assay. The cells are overlaid on PD-L1 the day before the test, and 1/200 cells are filled with T75 bottles on each well. Then add 1% BSA and seal at 37° C. for 1 hour. The antibody is diluted three folds starting from 5 μg/mL for 8 concentration gradients, incubated at 25° C. for 1 hour, and washed with PBST for one time. The volume of 50 ng/mL anti-human-Eu added to each well is 100 μL, with reaction time of 0.5 hours at 25° C., and washing with PBS for one time. Add fluorescence enhancement liquid and read values at exciting light 337 nm/emitted light 620 nm.

B7-1 = biological target: T1, B7-1; test: ELISA on coated protein, goat anti-human FAB-HRP, OD450
Description: The binding of B7 family members B7-1, B7-2 to PD-L2 protein, and the binding of mouse, M. fascicularis and human PD-L1 protein to humanized antibody anti-PD-L1-1 are tested. Different proteins are stored at […] in enveloping buffer at 4° C. overnight. Remove the solution in wells the next day and wash with PBST for twice. Then add 1% BSA, seal at 37° C. for 1 hour, then wash with PBST for twice. Add 0.5 μg/mL antibody samples, incubate for 1 hour, and wash with PBST for three times. Dilute with goat anti-human FAB-HRP at ratio of 1:10000, incubate for 1 hour at 37 C, and wash with PBST for three times. Add TMB for 15 min coloration, stop the reaction with 0.5M H₂SO₄ and read out the absorbance at 450 nm.

[10] = biological target: T4, recombinant human PD-L1 fusion protein; test: ELISA, recombinant human PD-L1 fusion protein coated, antibody after 4 days in monkey serum at 37 °C, goat anti-human FAB-HRP, OD450
Description: as §1

[11] = biological target: T4, recombinant human PD-L1 fusion protein; test: ELISA, recombinant human PD-L1 fusion protein coated, antibody after 1 day in monkey serum at 37 °C, goat anti-human FAB-HRP, OD450
Description: as §1

T4 sequence (Q9NZQ7 19-238): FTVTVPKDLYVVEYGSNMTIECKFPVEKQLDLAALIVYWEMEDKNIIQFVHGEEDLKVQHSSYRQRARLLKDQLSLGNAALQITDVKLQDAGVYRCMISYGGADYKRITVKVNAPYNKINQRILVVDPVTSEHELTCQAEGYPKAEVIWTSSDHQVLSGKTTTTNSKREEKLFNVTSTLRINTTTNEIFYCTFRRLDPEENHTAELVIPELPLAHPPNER
T3 sequence (Q9NZQ7 19-238 limits assumed): as the sequence (Q9NZQ7 19-238) above
T2 sequence (Q9NZQ7 19-290): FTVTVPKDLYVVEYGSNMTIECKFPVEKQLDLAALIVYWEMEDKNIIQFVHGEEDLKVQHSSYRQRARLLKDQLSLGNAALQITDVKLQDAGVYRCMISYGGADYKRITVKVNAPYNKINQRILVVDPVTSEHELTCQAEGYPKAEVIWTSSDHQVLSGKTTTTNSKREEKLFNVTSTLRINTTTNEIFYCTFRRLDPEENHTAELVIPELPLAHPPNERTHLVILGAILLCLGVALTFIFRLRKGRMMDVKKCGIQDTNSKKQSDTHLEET
T5 sequence (Q9NZQ7 19-290): as above

| Binder | IC50 [1] [µg/mL] | EC50 [2] [µg/mL] | IC50 (hPD-L1-Fc [3]) [nM] | EC50 (hPD-L1-Fc [4]) [µg/mL] | EC50 (read off the curve) [5] [µg/mL] | IC50 [6] [µg/mL] | EC50 [7] [µg/mL] | EC50 (read off the curve) [8] [µg/mL] | EC50 [9] [µg/mL] | binding result (B7-1) | EC50 (read off the curve) [10] [µg/mL] | EC50 (read off the curve) [11] [µg/mL] |
| --- | --- | --- | --- | --- | --- | --- | --- | --- | --- | --- | --- | --- |
| mouse anti-PD-L1 (antibody, V domains shown, also called mouse PD-L1 antibody; mouse anti-PD-L1 monoclonal antibody) VH: KVQLQQSGAELVKPGASVKLSCKASGYTFTKYIIHWIKQRSGQGLEWIGWFYPGSGNIRYNEKIKGKATLTADKSSSTVYMELSGLTSEDSAVYFCARHGELGGGYFFDYWGQGTTLTVSS VL: QIVLSQSPTILSASPGEKVTMTCRASSSVSNIHWYQQKTGSSPKPWIYATSNLASGAPVRFSGSGSGTSYSLTISRVEAEDAATYYCQQWSSNPLTFGPGTKLELKR | 0.638 | 0.0303 | 0.86 | 0.00167 |  |  |  |  |  |  |  |  |
| humanized antibody anti-PD-L1-1 (antibody, V domains shown, Expressed in CHO-KSM4 cells; also called humanized PD-L1 antibody) VH: EVQLVQSGAEVKKPGASVKVSCKASGYTFTKYIIHWVRQAPGQGLEWMGWFYPGSGNIRYNEKIKGRVTMTRDTSTSTVYMELSSLRSEDTAVYYCARHGELGGGYFFDYWGQGTTVTVSS VL: DIQLTQSPSFLSASVGDRVTITCRASSSVSNIHWYQQKPGKAPKPWIYATSNLASGVPSRFSGSGSGTEFTLTISSLQPEDFATYYCQQWSSNPLTFGQGTKLEIKR |  |  |  |  | ~0.04 | 0.0432 | 0.0195 | ~0.04 | 0.0935 | no binding (tested: 0.5 µg/mL antibody) | ~0.04 | ~0.04 |

Reference: patent US20190077867A1 (REYOUNG SUZHOU BIOLOGY SCIENCE AND TECHNOLOGY, published 2019)
